The text below walks through data of article PMC7082840 (Developmental cell, 2019).

This data set deals with the molecule itself. Nature of the data set: native gel or EMSA.

B1: NEUROG3^S183A (natural protein, human, UniProt Q9Y4Z2 1-214, looked up)
chain: MTPQPSGAPTVQVTRETERSFPRASEDEVTCPTSAPPSPTRTRGNCAEAEEGGCRGAPRKLRARRGGRSRPKSELALSKQRRSRRKKANDRERNRMHNLNSALDALRGVLPTFPDDAKLTKIETLRFAHNYIWALTQTLRIADHSLYALEPPAPHCGELGSPGGSPGDWGSLYSPVSQAGSLAPAASLEERPGLLGATFSACLSPGSLAFSDFL
As for B1, the binding result is listed as “binds”.
